Publication PMC11925332, “Structural Insights and Reaction Profile of a New Unspecific Peroxygenase from Marasmius wettsteinii Produced in a Tandem-Yeast Expression System” (ACS Chemical Biology, 2024)

B1: MweUPO-1 (Marasmius wettsteinii) (protein)
chain: SAHPWKAPGPNDSRGPCPGLNTLANHGFLPRNGRNISVPMIVKAGFEGYNVQSDILILAGKVGMLTSREADTISLEDLKLHGTIEHDASLSREDVAIGDNLHFNEAIFTTLANSNPGADVYNISSAAQVQHDRLADSVARNPNVTNTDLTATIRSSESAFYLTVMSAGDPLRGEAPKKFVNVFFQEERMPIKEGWKRSTTPINLPLLGPIIDRITELSDWKPTGDNCGAIVLGPGL

Key:
[1] = biological target: Recombinant unspecific peroxygenase MweUPO-1 from Marasmius wettsteinii (Marasmius wettsteinii); experiment: crystal structure; deglycosylated (Endo H) MweUPO-1, 11 mg/mL in 50 mM sodium citrate pH 5.6; sitting-drop vapor diffusion at 18 °C, 10-20% (v/v) PEG 4000, 0.2 M (NH4)2SO4; space group P43212, two molecules per asymmetric unit
purified protein [2] = substrate: COc1cccc(OC)c1O; experiment: purified protein; assay type: biochemical, Marasmius wettsteinii; conditions: 2 mM H2O2; 100 mM potassium phosphate pH 5.0 per table footnote (methods section says phosphate pH 6.0)
purified protein [3] = substrate: CCn1c(=NN=c2sc3cc(S(=O)(=O)O)ccc3n2CC)sc2cc(S(=O)(=O)O)ccc21; experiment: purified protein; conditions: 2 mM H2O2, 100 mM Britton-Robinson buffer pH 4.0 per table footnote (methods section says phosphate/citrate pH 4.0)
purified protein [4] = substrate: COc1ccc(CO)cc1OC; experiment: purified protein; conditions: 2 mM H2O2; 100 mM potassium phosphate pH 5.0 per table footnote (methods section says phosphate pH 7.0)

Row | stoichiometry N [1] | Molecule | Km (purified protein [2]) | kcat (purified protein [2]) | kcat/Km (purified protein [2]) | Km (purified protein [3]) | kcat (purified protein [3]) | kcat/Km (purified protein [3]) | Km (purified protein [4]) | kcat (purified protein [4]) | kcat/Km (purified protein [4])
1 | 2 | Recombinant unspecific peroxygenase MweUPO-1 from Marasmius wettsteinii (enzyme) |  |  |  |  |  |  |  |  | 
2 |  | B1 | 220 ± 1 µM | 61.6 ± 0.85 s⁻¹ | 285000 M⁻¹ s⁻¹ | 30 ± 3 µM | 15.5 ± 0.68 s⁻¹ | 534000 M⁻¹ s⁻¹ | 260 ± 80 µM | 22.5 ± 0.73 s⁻¹ | 87600 M⁻¹ s⁻¹
